T1: murine resistin (#450-28) from peprotech (mouse, UniProt Q99P87 21-114)
T1 construct: Bought; also called mouse antigen; mouse resistin antigen
T1 sequence (looked up): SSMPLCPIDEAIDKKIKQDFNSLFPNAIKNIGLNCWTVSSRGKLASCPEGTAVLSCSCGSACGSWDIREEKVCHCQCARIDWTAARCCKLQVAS

T2: resistin antigen (UniProt Q9HD89 19-108, limits assumed)
T2 construct: Used for the Octet assays and the monophage ELISAs, where only 'resistin antigen' is printed; tags not known; also called resistin antigen protein
T2 sequence (looked up): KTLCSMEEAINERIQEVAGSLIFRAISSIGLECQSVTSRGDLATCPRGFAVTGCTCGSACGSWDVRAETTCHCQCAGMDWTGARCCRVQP


What follows are binders tested against T1, murine resistin (#450-28) from peprotech (assay: ELISA, coated murine resistin).
Experimental: The mouse antigen was murine resistin (#450-28) from peprotech. Mouse antigen was diluted to 10 nM in DPBS in 96-well immune plates (NUNC, 439454) at 100 μl per well, and coated for 16 hours at 4° C. It was then blocked with skim milk diluted 4% in PBS for 1 hour at 37° C. Antibody proteins were diluted in 1% skim milk diluted in PBS to 1, 10, and 100 nM, respectively, at 100 μl per well and incubated for 2 hours at 37° C. After washing with PBS-T, anti-human Fc-HRP (Pierce® Peroxidase Conjugated Goat Anti-Human IgG FC (thermo fisher scientific, 31413)) was diluted at 1:10,000 dilution and reacted for 1 hour at 37° C. as a secondary antibody. After PBS-T washing, 100 μl of TMB (sigma, T0440) solution was applied to each well for a 10 min substrate reaction. After 10 minutes, the substrate reaction was stopped by treating each well with 50 μl of 1N H₂SO₄ and measured at 490 nm using a spectrophotometer (thermo fisher scientific, 51119200).

| Binder | binding result |
| --- | --- |
| RETN-5A2 (antibody, human IgG1, V domains shown, Human antibody from scFv phage library, converted to IgG and made in HEK293F cells; also called parent antibody 5A2; resistin 5A2 parent antibody) VH: QVQLVQSGAEGRKPGSSVKVSCKVSGDTFSSYAISWVRQAPGQGLEWMGGIIPIFGAADYAQKFKGRVTISADESTSTAYMELSSLRSEDTAVYYCAKGPDYYGSFDPWGQGTLITVSS VL: DIQMTQSPSFLSASVGDRVTITCRASQYIGTYLAWYQQQPGKAPKLLIYGASILQNGVPSRFSGSASGTEFTLTISSLQPEDFATYYCQQADSFPLTFGGGTKVDIKR | no binding (tested: antibody at 1, 10 and 100 nM) |

What follows are binders tested against T2, resistin antigen (assay: Octet, resistin antigen on the biosensor, antibody in solution).
Text: To investigate the affinity between the antibody and the resistin antigen, the Octet (Forte bio) system, which enables real-time investigation of ligand-receptor binding using a biosensor, was used. The system is an instrument that binds resistin antigen protein to a biosensor, flows antibody through it, and optically analyzes the degree of antibody binding to the antigen bound to the sensor, measuring the level of antibody binding to the antigen with high sensitivity at the light wavelength level. The affinity for the resistin antigen was expressed as Kₒₙ (association constants, binding rate) and Kdis (dissociation constants, dissociation rate) between the receptor and ligand, and KD (equilibrium dissociation constant) for the reaction of binding and dissociation.

| Binder | Kd [nM] |
| --- | --- |
| RETN-5A2 (antibody, human IgG1, V domains shown, Human antibody from scFv phage library, converted to IgG and made in HEK293F cells; also called parent antibody 5A2; resistin 5A2 parent antibody) VH: QVQLVQSGAEGRKPGSSVKVSCKVSGDTFSSYAISWVRQAPGQGLEWMGGIIPIFGAADYAQKFKGRVTISADESTSTAYMELSSLRSEDTAVYYCAKGPDYYGSFDPWGQGTLITVSS VL: DIQMTQSPSFLSASVGDRVTITCRASQYIGTYLAWYQQQPGKAPKLLIYGASILQNGVPSRFSGSASGTEFTLTISSLQPEDFATYYCQQADSFPLTFGGGTKVDIKR | ≤ 1 |
| RETN-5A2_LS_2F11 (antibody, human IgG1, V domains shown, Light chain shuffled variant of RETN-5A2, tested as IgG) VH: QVQLVQSGAEGRKPGSSVKVSCKVSGDTFSSYAISWVRQAPGQGLEWMGGIIPIFGAADYAQKFKGRVTISADESTSTAYMELSSLRSEDTAVYYCAKGPDYYGSFDPWGQGTLITVSS VL: DIQMTQSPSSLSASVGDRVTITCRASQSIGTYLNWYQQKPGKAPKLLIYDASSLEDGVPSRFSGSGSGTDFTLTISSLQPEDSATYYCQQSYTMPLYTFGQGTKLEIKR | ≤ 1 |
| RETN-5A2_LS_2B02 (antibody, human IgG1, V domains shown, Light chain shuffled variant of RETN-5A2, tested as IgG) VH: QVQLVQSGAEGRKPGSSVKVSCKVSGDTFSSYAISWVRQAPGQGLEWMGGIIPIFGAADYAQKFKGRVTISADESTSTAYMELSSLRSEDTAVYYCAKGPDYYGSFDPWGQGTLITVSS VL: DIQMTQSPGTLSLSAGERATLSCRASQSVRGSYLAWYQQKPGQAPRLLIYGTSSRAPGIPDRFSGSGSGTDFTLTISSLEPEDFAVYYCQQRGDWLYTFGQGTKVEIKR | ≤ 1 |
| RETN-5A2_LS_2H10 (antibody, human IgG1, V domains shown, Light chain shuffled variant of RETN-5A2, tested as IgG) VH: QVQLVQSGAEGRKPGSSVKVSCKVSGDTFSSYAISWVRQAPGQGLEWMGGIIPIFGAADYAQKFKGRVTISADESTSTAYMELSSLRSEDTAVYYCAKGPDYYGSFDPWGQGTLITVSS VL: NFMLTQPASVSGSPGQSITISCTGSSSDVGGYNYVTWYQQHPGKAPQLIIYDVTKRPSGVSNRFSGSKSGNSASLTISGLQAEDEADYYCSSYSSSTFYVFGTGTKVTVLR | ≤ 1 |
| RETN-5A2_LS_2E10 (antibody, human IgG1, V domains shown, Light chain shuffled variant of RETN-5A2, tested as IgG) VH: QVQLVQSGAEGRKPGSSVKVSCKVSGDTFSSYAISWVRQAPGQGLEWMGGIIPIFGAADYAQKFKGRVTISADESTSTAYMELSSLRSEDTAVYYCAKGPDYYGSFDPWGQGTLITVSS VL: DIQMTQSPSSLSASVGDRVTITCRTSQTITNYLNWYQQKPGRAPKLLIFDASNLETGVPSRFSGSGSGTDFTLTISSLQPEDFATYFCQQSYNPGYTFGQGTKLEIKR | ≤ 1 |
| RETN-5A2_LS_2G03 (antibody, human IgG1, V domains shown, Light chain shuffled variant of RETN-5A2, tested as IgG) VH: QVQLVQSGAEGRKPGSSVKVSCKVSGDTFSSYAISWVRQAPGQGLEWMGGIIPIFGAADYAQKFKGRVTISADESTSTAYMELSSLRSEDTAVYYCAKGPDYYGSFDPWGQGTLITVSS VL: DIQMTQSPSSLSASVGDRVTITCQASQHVSSYLNWYQQKPGKAPKLLIYAASNLQSGVPSRFSGSGSGTDFTLTISSLQPDDFATYYCQQYDSYSSVYTFGPGTKLDIKR | ≤ 1 |
| RETN-5A2_LS_2D07 (antibody, human IgG1, V domains shown, Light chain shuffled variant of RETN-5A2, tested as IgG) VH: QVQLVQSGAEGRKPGSSVKVSCKVSGDTFSSYAISWVRQAPGQGLEWMGGIIPIFGAADYAQKFKGRVTISADESTSTAYMELSSLRSEDTAVYYCAKGPDYYGSFDPWGQGTLITVSS VL: QSALTQPASVSGSPGQSVTISCTGTSSDIGRYNRVSWYQHHPGKAPKLIIYDVSNRPSGVSNRFSGSKSGNTASLTISGLQAGDESDYYCSAYTRSSTWVFGGGTKLTVLR | ≤ 1 |
| RETN-5A2_LS_1F11 (antibody, human IgG1, V domains shown, Light chain shuffled variant of RETN-5A2, tested as IgG) VH: QVQLVQSGAEGRKPGSSVKVSCKVSGDTFSSYAISWVRQAPGQGLEWMGGIIPIFGAADYAQKFKGRVTISADESTSTAYMELSSLRSEDTAVYYCAKGPDYYGSFDPWGQGTLITVSS VL: not shown | ≤ 1 |

From patent publication US20250019430A1 (SEOUL NATIONAL UNIVERSITY HOSPITAL, published 2025)
